In assay [1] the target is NTD and CC region of CYK-4 (residues 1 to 120) (C. elegans). The assay can be described thus: crystal structure.
The target in assay [2] is dimerization domain of ZEN-4 (residues 530 to 601) (C. elegans). Put plainly: crystal structure.

Turning to “NTD and CC region of CYK-4 (residues 1 to 120) (domain or fragment)”, the stoichiometry N in assay [1] was determined as 2.
In turn, “dimerization domain of ZEN-4 (residues 530 to 601) (domain or fragment)” had a stoichiometry N in assay [2] of 2.

(Values after article PMC8501884.)
